Measurements as given in US20160046689A1 (NOVELOGICS BIOTECHNOLOGY, published 2016).

B1: antibody 1F5 (antibody, IgG1, V domains shown)
VH: QIQLVQSGPELKKPGETVKISCKASGYTFTDYSVHWVKQAPGKGLKWMGWINTETGEPTYADDFKGRFAFSLETSASTAYLQINNLKNEDTATYFCARAGGNAFAYWGQGTLVTVSA
VL: DIVLTQSPASLAVSLGQRATISCRASKSVSTSGYSYMHWYQQKPGQPPKLLIYRASNLESGVPARFSGSGSGTDFTLNIHPVEEEDAATYYCQHSRELPLTFGAGTKLELKR
notes: Mouse hybridoma monoclonal, IgG1 heavy chain and kappa light chain; Tested as hybridoma supernatant in ELISA and FACS; also called IF5; antibody from clone 1F5
B2: antibody 8C7 (antibody, IgG1, V domains shown)
VH: QIQLVQSGPELKKPGETVKISCKASGYTFTNYGMNWVKQAPGKGLKWMGWINTNTGEPTYAEEFKGRFAFSLETSASTAYLQINNLKNEDTATYFCARSGGSSPFAYWGQGTLVTVSA
VL: DIVMTQAAPSVPVTPGESVSISCRSSKSLLQSNGNTFLYWFMQRPGQSPQLLIYRMSNLASGVPDRFSGSGSGTAFTLRISRVEAEDVGVYYCMQHLEYPFTFGGGTKLEIKR
notes: Mouse hybridoma monoclonal, IgG1 heavy chain and kappa light chain; Tested as hybridoma supernatant in ELISA and FACS; also called antibody from clone 8C7; hybridoma clone 8C7

Target: T1, recombinant extracellular alpha-3 domain of MICA (allele 001), Baculovirus-expressed, C-terminal His tag (human, UniProt Q29983 205-297)
T1 construct: Expressed in Sf9 cells and purified by Ni2+ chelation with 8M urea, then dialysed; also called alpha-3 domain MICA protein; target MICA alpha-3 domain recombinant protein
T1 sequence: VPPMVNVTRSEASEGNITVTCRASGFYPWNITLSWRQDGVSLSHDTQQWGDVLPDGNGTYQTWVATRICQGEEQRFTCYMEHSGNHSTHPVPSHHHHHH
Experiment: BLI (Octet RED96), antibody captured by anti-mouse IgG, antigen in solution, pH 7.4, 1:1 model
Method: Biomolecular interactions between antigen and antibody were directly measured by Bio-Layer Interferometry (BLI) using a Pall ForteBio Octet RED96 machine (Pall ForteBio, CA, USA). Real-time kinetic analyses were performed on the test MICA monoclonal antibodies 1F5 and 8C7, as well as two control antibodies, one of which could bind the alpha-3 MICA subdomain antigen (positive control) and one of which could not (negative control, binds other MICA subdomains), as previously determined by ELISA. The Octet RED96 apparatus operates under the principle of Bio-Layer Interferometry, a label-free technique that measures molecular interactions and complex formation. A key component of the technique is the optical biosensor whose tip is immersed in the fluids of the test well and then used to assay interference patterns between waves of light. Here, the ligand (monoclonal antibody) is localized to the surface of the biosensor through capture by previously bound anti-mouse IgG, while the analyte biomolecule (antigen) is kept in solution. Binding responses between ligand and analyte were measured and reported in real-time. Both association and dissociation kinetics were monitored and KD values were calculated. This model assumed a 1:1 interaction of ligand to analyte.

| Binder | Kd |
| --- | --- |
| B1 | ~0.783 nM |
| B2 | ~6.81 nM |
